Measured values taken from paper PMC11206591, “Novel Ultrasound-Responsive Amyloid Formulation” (Pharmaceuticals, 2024).

Target: the molecule itself
Assay: thioflavin T (ThT) fluorescence; 200 µM peptide in 100 mM ammonium acetate buffer pH 7, 37 °C in a thermomixer, read at 24 h and 48 h; with and without Pluronic F127 0.01% and Dox; ThT 50 µM in 20 mM Tris pH 8, 440/482 nm

B1: Receptor-interacting protein RIP 3 peptide NIYNCSGVQVGD (peptide)
peptide: NIYNCSGVQVGD
notes: The amyloids were formed from the peptide alone and also with Pluronic F127 (0.01% w/v) and/or Doxorubicin; also called 12-amino-acid peptide from the amyloidogenic region of RIP3; source: synthetic peptide, custom-synthesized from Genscript
**Q.** Does B1 bind?
**A.** binds
